Reference: paper PMC7949057, “The cytoprotective protein MANF promotes neuronal survival independently from its role as a GRP78 cofactor” (The Journal of Biological Chemistry, 2021)

B1: Nucleotide-binding domain (NBD) of GRP78 (domain or fragment)
chain: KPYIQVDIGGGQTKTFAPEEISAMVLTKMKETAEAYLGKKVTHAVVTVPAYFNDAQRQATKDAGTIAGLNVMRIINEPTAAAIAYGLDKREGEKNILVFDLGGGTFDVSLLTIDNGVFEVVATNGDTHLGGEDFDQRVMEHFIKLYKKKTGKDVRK
modifications: RED-tris-NTA dye held on the His-tag
B2: Recombinant human MANF protein (natural protein, UniProt P55145 25-182, looked up)
chain: LRPGDCEVCISYLGRFYQDLKDRDVTFSPATIENELIKFCREARGKENRLCYYIGATDDAATKIINEVSKPLAHHIPVEKICEKLKKKDSQICELKYDKQIDLSTVDLKKLRVKELKKILDDWGETCKGCAEKSDYIRKINELMPKYAPKAASARTDL
notes: MANF, human, mature protein secreted from CHO-derived cells; also called wild-type MANF; FL-MANF; source: CHO-derived cell line (QMCF technology), purified from culture media (Q FF, SP HP, SEC)
B3: CH1-derived substrate peptide (HTFPAVL) (peptide)
peptide: HTFPAVL
notes: peptide derived from the CH1 domain of an IgG heavy chain; also called IgG heavy chain-derived peptide; source: synthetic peptide (custom synthesis by Pepscan)

Legend:
Details in all cases: both partners purified
[1] = molecular target: B2; assay: MST; GRP78 or its variants labelled through the N-terminal His-tag, constant 20 nM; ligand titrated in 2-fold dilutions; 25 °C; MST buffer (10 mM Na-phosphate pH 7.4, 1 mM MgCl2, 3 mM KCl, 150 mM NaCl, 0.05% Tween-20); no nucleotide; for MANF with GRP78 also 0, 1, 100 or 200 uM CaCl2; fit with 1:1 stoichiometry
[2] = molecular target: T1, Recombinant hamster GRP78 protein (hamster, UniProt G3I8R9 19-654, RED-tris-NTA dye held on the His-tag); assay: MST; as a4, in the presence of AMP
T1 construct: GRP78 (BiP), hamster; also called BiP; full-length GRP78; not shown: His-tag, N-terminal, kept

[3] = molecular target: T1, Recombinant hamster GRP78 protein; assay: MST; GRP78 or its variants labelled through the N-terminal His-tag, constant 20 nM; ligand titrated in 2-fold dilutions; 25 °C; MST buffer (10 mM Na-phosphate pH 7.4, 1 mM MgCl2, 3 mM KCl, 150 mM NaCl, 0.05% Tween-20); no nucleotide; for MANF with GRP78 also 0, 1, 100 or 200 uM CaCl2; fit with 1:1 stoichiometry
[4] = molecular target: T1, Recombinant hamster GRP78 protein; assay: MST; as a4, in the presence of ADP

T1 sequence (G3I8R9 19-654): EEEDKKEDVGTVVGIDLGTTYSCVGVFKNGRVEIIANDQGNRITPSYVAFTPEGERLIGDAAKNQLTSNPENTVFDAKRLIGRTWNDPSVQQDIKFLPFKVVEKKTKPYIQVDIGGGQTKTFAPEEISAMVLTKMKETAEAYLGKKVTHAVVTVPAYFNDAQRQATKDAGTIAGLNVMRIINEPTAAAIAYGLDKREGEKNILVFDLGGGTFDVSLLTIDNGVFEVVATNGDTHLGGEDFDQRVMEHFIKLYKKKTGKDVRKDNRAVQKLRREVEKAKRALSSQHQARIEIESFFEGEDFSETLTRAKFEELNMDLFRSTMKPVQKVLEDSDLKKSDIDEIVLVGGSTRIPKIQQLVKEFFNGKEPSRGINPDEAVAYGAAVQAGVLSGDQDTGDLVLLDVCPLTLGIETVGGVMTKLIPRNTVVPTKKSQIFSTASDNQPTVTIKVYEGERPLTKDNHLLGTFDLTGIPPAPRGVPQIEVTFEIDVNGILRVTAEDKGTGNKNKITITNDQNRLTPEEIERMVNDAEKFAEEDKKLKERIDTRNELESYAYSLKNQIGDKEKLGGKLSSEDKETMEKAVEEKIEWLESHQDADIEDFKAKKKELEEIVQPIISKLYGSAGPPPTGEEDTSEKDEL

Binder | Kd [1] [nM] | Kd [2] [nM] | Kd [3] [nM] | Kd [4] [nM]
B1 | 280 |  |  | 
B2 |  | 260 | 380 | 5690
B3 |  |  | 220 | 120
